In patent publication US20200399318A1, “PEPTIDE INHIBITORS OF PHOSPHOGLYCERATE MUTASE AND METHODS OF USE” (priority 2016, published 2020):
Where “and” joins values, the source holds several entries; their conditions need not be identical. Equal entries are not always repeated. Where two headings read alike, the source gives them in different places.

Key:
[1] = molecular target: E. coli iPGM (Escherichia coli, UniProt P37689); test: biochemical
[2] = tested on: D. immitis iPGM; type: biochemical, Dirofilaria immitis
[3] = molecular target: O. volvulus iPGM (Onchocerca volvulus, UniProt I6LDA6); test: biochemical
[4] = molecular target: B. malayi iPGM (Brugia malayi, UniProt Q4VWF8); test: biochemical
[5] = tested on: iPGM orthologs and dPGM isozymes; type: biochemical
[6] = molecular target: T1, C. elegans cofactor-independent phosphoglycerate mutase (iPGM) (Caenorhabditis elegans), G5EFZ1; test: quadratic (stoichiometric binding) model fitted to concentration response curves of the coupled bioluminescent enzyme assay at several C. elegans iPGM concentrations (FIG. 10B)
T1 chain: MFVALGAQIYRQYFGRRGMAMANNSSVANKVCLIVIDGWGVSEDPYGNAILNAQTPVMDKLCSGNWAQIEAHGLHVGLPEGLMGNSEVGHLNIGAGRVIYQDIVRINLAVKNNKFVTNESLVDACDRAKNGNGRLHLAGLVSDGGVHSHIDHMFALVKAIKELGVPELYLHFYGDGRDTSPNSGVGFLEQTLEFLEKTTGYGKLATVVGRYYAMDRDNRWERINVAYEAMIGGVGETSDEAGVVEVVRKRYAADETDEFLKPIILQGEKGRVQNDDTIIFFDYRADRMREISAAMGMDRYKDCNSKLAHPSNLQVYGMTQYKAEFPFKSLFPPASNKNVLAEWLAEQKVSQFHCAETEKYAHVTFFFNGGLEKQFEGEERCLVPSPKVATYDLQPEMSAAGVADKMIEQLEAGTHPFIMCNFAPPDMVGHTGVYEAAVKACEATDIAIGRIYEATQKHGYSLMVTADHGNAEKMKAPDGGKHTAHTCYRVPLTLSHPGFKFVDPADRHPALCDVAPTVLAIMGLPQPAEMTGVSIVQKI

[7] = molecular target: T2, O. volvulus cofactor-independent phosphoglycerate mutase (iPGM) (Onchocerca volvulus), I6LDA6; test: cell-based or functional assay
T2 chain: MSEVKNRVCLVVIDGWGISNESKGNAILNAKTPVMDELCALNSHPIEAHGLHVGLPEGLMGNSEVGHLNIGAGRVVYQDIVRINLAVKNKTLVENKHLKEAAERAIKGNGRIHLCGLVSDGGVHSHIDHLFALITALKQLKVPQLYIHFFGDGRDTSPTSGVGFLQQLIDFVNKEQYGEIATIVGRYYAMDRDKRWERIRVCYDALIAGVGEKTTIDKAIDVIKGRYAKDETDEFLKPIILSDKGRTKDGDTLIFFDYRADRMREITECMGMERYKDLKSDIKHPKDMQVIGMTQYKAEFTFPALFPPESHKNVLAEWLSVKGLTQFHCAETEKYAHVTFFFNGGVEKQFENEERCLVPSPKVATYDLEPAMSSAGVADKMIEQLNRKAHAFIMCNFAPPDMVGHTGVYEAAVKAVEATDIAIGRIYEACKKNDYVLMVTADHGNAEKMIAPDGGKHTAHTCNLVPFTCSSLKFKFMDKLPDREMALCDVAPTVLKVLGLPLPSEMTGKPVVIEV

[8] = molecular target: T3, E. coli cofactor-dependent phosphoglycerate mutase (dPGM) (Escherichia coli), P62707; test: cell-based or functional assay
T3 chain: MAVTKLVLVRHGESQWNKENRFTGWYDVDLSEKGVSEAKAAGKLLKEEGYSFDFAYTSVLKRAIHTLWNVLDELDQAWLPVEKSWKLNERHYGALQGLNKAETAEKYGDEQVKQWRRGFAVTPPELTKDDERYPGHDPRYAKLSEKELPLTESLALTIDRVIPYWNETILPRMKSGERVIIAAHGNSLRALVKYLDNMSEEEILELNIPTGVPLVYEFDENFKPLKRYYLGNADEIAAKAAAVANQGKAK

[9] = molecular target: T1, C. elegans cofactor-independent …; test: cell-based or functional assay
[10] = molecular target: iPGM orthologues; test: cell-based or functional assay
[11] = molecular target: T4, B. malayi cofactor-independent phosphoglycerate mutase (iPGM) (Brugia malayi), Q4VWF8; test: cell-based or functional assay
T4 chain: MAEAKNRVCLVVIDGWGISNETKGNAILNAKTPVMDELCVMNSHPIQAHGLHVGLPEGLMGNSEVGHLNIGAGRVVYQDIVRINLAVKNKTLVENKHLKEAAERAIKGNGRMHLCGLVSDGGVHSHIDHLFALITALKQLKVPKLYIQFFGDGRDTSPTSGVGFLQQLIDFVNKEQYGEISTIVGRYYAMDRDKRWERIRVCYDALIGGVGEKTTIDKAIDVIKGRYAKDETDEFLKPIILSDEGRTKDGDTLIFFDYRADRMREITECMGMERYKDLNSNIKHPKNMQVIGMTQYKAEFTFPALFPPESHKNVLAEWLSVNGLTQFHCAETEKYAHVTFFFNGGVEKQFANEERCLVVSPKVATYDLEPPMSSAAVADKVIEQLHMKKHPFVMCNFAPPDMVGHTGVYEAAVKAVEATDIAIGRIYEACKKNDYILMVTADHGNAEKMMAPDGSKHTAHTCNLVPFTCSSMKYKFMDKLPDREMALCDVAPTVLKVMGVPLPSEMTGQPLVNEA

[12] = molecular target: T5, E. coli cofactor-independent phosphoglycerate mutase (iPGM) (Escherichia coli), P37689; test: cell-based or functional assay
[13] = molecular target: H. sapiens cofactor-dependent phosphoglycerate mutase (dPGM) (Homo sapiens), P18669; test: cell-based or functional assay
[14] = molecular target: T2, O. volvulus cofactor-independent …; test: cell-based or functional assay
[15] = molecular target: T1, C. elegans cofactor-independent …; test: cell-based or functional assay
[16] = molecular target: T4, B. malayi cofactor-independent …; test: cell-based or functional assay
[17] = molecular target: T5, E. coli cofactor-independent …; test: cell-based or functional assay; remark: listed apart in the source
[18] = molecular target: T2, O. volvulus cofactor-independent …; test: cell-based or functional assay
[19] = read-out: E. coli iPGM Max Inhibition
[20] = read-out: O. volvulus iPGM Max Inhibition
[21] = read-out: B. malayi iPGM Max Inhibition

Chain of E. coli iPGM (P37689 whole entry, looked up): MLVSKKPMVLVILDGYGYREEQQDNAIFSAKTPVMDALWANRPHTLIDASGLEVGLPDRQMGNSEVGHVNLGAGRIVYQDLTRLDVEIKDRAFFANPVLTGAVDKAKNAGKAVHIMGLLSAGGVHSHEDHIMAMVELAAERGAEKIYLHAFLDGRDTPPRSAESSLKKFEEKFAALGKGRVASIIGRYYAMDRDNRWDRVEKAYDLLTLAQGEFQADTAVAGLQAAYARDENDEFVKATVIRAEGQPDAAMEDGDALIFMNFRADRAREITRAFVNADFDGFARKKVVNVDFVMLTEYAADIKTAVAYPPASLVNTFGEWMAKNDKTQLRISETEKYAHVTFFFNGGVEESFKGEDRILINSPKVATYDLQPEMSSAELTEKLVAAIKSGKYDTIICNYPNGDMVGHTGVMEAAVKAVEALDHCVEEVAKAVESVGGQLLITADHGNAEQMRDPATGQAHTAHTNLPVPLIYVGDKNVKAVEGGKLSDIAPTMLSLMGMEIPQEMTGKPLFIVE

With ^Ac-DYDYPGDYSYLY [Ce-L2d] the “E. coli iPGM Max Inhibition” value [1] was −21.1 ± 2.4, the “D. immitis iPGM Max Inhibition” value [2] was −5.2 ± 4.9 and the “O. volvulus iPGM Max Inhibition” value [3] was −15.7 ± 8.3. The “B. malayi iPGM Max Inhibition” value [4] was −7.3 ± 2.0 and the “inhibitory activity on the iPGM orthologs” value [5] was “completely inactive”.

^Ac-DYLYGTCG [Ce-2tail] was tested, and the “E. coli iPGM Max Inhibition” value [1] was −21.1 ± 2.7, the “D. immitis iPGM Max Inhibition” value [2] was −1.9 ± 10.3 and the “O. volvulus iPGM Max Inhibition” value [3] was −11.6 ± 5.3. For the same molecule, the “B. malayi iPGM Max Inhibition” value [4] was −10.2 ± 3.3 and the “activity on all PGMs” value [5] was “inactive”.

In the case of `CC(C)C[C@H](NC(=O)[C@H](Cc1ccc(O)cc1)NC(=O)[C@@H]1CSCC(=O)N[C@H](Cc2ccc(O)cc2)C(=O)N[C@@H](CC(=O)O)C(=O)N[C@@H](Cc2ccc(O)cc2)C(=O)N2CCC[C@H]2C(=O)NCC(=O)N[C@@H](CC(=O)O)C(=O)N[C@@H](Cc2ccc(O)cc2)C(=O)N1)C(=O)N[C@@H](Cc1ccc(O)cc1)C(=O)NCC(=O)N[C@H](C(=O)N[C@@H](CS)C(N)=O)[C@@H](C)O` [Ce-2a], the “E. coli iPGM PIC50, M” value [1] is reported as 8.51 ± 0.14 M and 9.58 ± 0.02 M, the Emax [1, 19] is reported as 99.2 ± 8.5% and the inhibition at 0.0005 µM [1, 19] is reported as 84.1 ± 9.5%. The “D. immitis iPGM Max Inhibition” value [2] was −100.1 ± 5.6, the “D. immitis iPGM PIC50, M” value [2] was 9.68 ± 0.09 M and the “D. immitis iPGM Max Inhibition” value ([2]; 0.0005 µM) was −92.5 ± 4.0. For the same molecule, the “O. volvulus iPGM PIC50, M” value [3] was 7.31 ± 0.09 M, the “pIC50 O. volvulus iPGM” value [3] was 9.68 and the Emax [3, 20] was 97.7 ± 4.4%. The inhibition at 0.0005 µM [3, 20] was 97.5 ± 2.7%, the “B. malayi iPGM PIC50, M” value [4] was 8.07 ± 0.10 M and 9.49 ± 0.08 M and the Emax [4, 21] was 99.2 ± 5.3%. The inhibition at 0.0005 µM [4, 21] was 100.3 ± 0.8% and the “inhibitory activity on the iPGM orthologs” value [5] was “subnanomolar potency”.

Work on YDYPGDYCYLYGTCG (modifications not checked) [Ce-2 (ipglycermide B)] yielded a Kd [6] of 0.073 nM, a Max Inhibition [7] of -98.2 and a fold enhancement in affinity against linear Ce-L2 (from IC50s) [7] of 10000 fold. For the same molecule, the pIC50 [7] was 7.72 pIC50 (M), the Max Inhibition [8] was -5.9 and the Max Inhibition (* series) [8] was 2.7. It also gave a Max Inhibition [9] of -100, a Max Inhibition (* iPGM 500 pM) [9] of -101 and a pEC50 (GEMBE) [9] of 8.36 pEC50. For the same molecule, the pIC50 [9] was 8.65 pIC50 (M), the pIC50 (* iPGM 500 pM) [9] was 9.6 pIC50 (M) and the inhibitory activity (endpoint profiling assays) [10] was 2 to 20 nM. For the same molecule, the Max Inhibition [11] was -98.8, the pEC50 (GEMBE) [11] was 8.37 pEC50 and the pIC50 [11] was 8.27 pIC50 (M). It also gave a Max Inhibition [12] of -102, a fold enhancement in affinity against linear Ce-L2 (from IC50s) [12] of 2000 fold and a pEC50 (GEMBE) [12] of 8.49 pEC50. For the same molecule, the pIC50 [12] was 8.78 pIC50 (M), the Max Inhibition [13] was -0.3 and the Max Inhibition (* series) [13] was 1.9. For the same molecule, the IC50 [14] was 23 nM and 23.5 nM, the pIC50 [14] was 7.63 pIC50 and the IC50 [15] was 2.3 nM and 2.34 nM. For the same molecule, the pIC50 [15] was 8.63 pIC50, the IC50 [16] was 17 nM and 16.8 nM and the pIC50 [16] was 7.78 pIC50. For the same molecule, the IC50 [17] was 0.23 nM and the pIC50 [17] was 9.64 pIC50.

With YDYPGDHCYLYGTCG (modifications not checked) [Ce-1 (ipglycermide A)] the pIC50 [18] was 7.62 pIC50, the Max Inhibition [7] was -95.4 and the pIC50 [7] was 7.61 pIC50 (M). The Max Inhibition [8] was 5, the Max Inhibition [9] was -95.8 and the pIC50 [9] was 8.4 pIC50 (M). The inhibitory activity (endpoint profiling assays) [10] was 2 to 20 nM, the Max Inhibition [11] was -94 and the pIC50 [11] was 7.92 pIC50 (M). For the same molecule, the Max Inhibition [12] was -96.5, the pIC50 [12] was 8.38 pIC50 (M) and the Max Inhibition [13] was 4.

For YDYPGDYCYLY (modifications not checked) [Ce-2d], the Max Inhibition [8] was -6.3, the Max Inhibition (* series) [8] was 2.3 and the Max Inhibition [9] was -103. The Max Inhibition (* iPGM 500 pM) [9] was -100, the pEC50 (GEMBE) [9] was 8.49 pEC50 and the pIC50 [9] was 8.56 pIC50 (M). The pIC50 (* iPGM 500 pM) [9] was 9.03 pIC50 (M), the Max Inhibition [12] was -102 and the pEC50 (GEMBE) [12] was 8.5 pEC50. The pIC50 [12] was 8.71 pIC50 (M), the Max Inhibition [13] was -1.2 and the Max Inhibition (* series) [13] was 7.9. The IC50 [15] was 3.9 nM and 3.88 nM, the pIC50 [15] was 8.41 pIC50 and the IC50 [17] was 0.77 nM. The pIC50 [17] was 9.12 pIC50.
